We go through 1 molecule from US7186408 (CAMBRIDGE UNIVERSITY TECHNICAL SERVICES, dated 2007).

The target in experiment [1] is vCD30-Fc (EV Hampstead vCD30 fused to the Fc fragment of human IgG1, baculovirus AcCD30-Fc, purified from Hi5 … (ectromelia virus, strain Hampstead; …).
Experiment [2] concerns the target T1, Human CD30 on K562 cells (human, UniProt P28908 19-595).
T1 construct: also called cell surface CD30; cellular receptors
T1 sequence: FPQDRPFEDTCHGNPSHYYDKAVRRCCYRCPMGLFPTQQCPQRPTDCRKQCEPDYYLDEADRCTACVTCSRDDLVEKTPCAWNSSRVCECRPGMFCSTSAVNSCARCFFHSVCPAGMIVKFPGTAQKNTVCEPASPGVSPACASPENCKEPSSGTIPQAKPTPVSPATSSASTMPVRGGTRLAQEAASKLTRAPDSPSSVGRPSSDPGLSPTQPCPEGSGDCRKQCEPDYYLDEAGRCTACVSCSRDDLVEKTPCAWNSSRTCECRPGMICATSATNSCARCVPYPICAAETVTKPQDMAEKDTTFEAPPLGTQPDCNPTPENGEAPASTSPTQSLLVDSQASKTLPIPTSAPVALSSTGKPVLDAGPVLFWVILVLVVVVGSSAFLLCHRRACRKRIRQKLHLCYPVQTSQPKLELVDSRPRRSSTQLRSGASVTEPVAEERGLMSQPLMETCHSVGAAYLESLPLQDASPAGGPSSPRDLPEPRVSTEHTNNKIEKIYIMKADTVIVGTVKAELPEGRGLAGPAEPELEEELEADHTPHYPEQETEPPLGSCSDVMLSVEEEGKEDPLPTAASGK
The experiment is described as follows: flow cytometry on K562 cells. (Flow cytometry measures light scatter and fluorescence of single cells or particles in a stream.)

Experiment [3] has as its target T2, Recombinant mouse CD30-Fc (R&D Systems) (mouse, UniProt Q60846 19-281).
T2 construct: also called moCD30-Fc; not shown: Fc portion of the bought fusion protein
T2 sequence: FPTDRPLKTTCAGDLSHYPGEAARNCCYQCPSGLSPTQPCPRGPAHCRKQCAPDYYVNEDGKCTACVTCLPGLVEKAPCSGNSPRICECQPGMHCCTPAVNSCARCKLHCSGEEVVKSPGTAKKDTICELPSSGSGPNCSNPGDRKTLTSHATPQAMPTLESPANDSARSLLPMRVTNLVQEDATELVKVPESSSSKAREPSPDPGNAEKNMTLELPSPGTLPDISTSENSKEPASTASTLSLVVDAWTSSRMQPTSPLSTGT
The experiment is described as follows: Scatchard analysis (LIGAND), 2 ng mouse CD30 on protein A FlashPlate with increasing mouse 125I-CD30L.

B1: Recombinant mouse CD30L (soluble, 6x histidine-tagged, R&D Systems) (ligand, UniProt P32972 68-239, looked up)
chain: QKKDSTPNTTEKAPLKGGNCSEDLFCTLKSTPSKKSWAYLQVSKHLNNTKLSWNEDGTIHGLIYQDGNLIVQFPGLYFIVCQLQFLVQCSNHSVDLTLQLLINSKIKKQTLVTVCESGVQSKNIYQNLSQFLLHYLQVNSTISVRVDNFQYVDTNTFPLDNVLSVFLYSSSD
notes: also called 125I-CD30L; mouse 125I-CD30L
As a reminder, the Kd is the equilibrium constant for the complex coming apart. For the molecule B1, the Kd in experiment [1] and in experiment [3] was 1 nM throughout. In experiment [2], the binding result is “binds”.
